Measurements from patent US8415106B2, “Cell-based screen for agents useful for reducing neuronal demyelination or promoting neuronal remyelination” (Myelin Repair Foundation, Inc., priority 2005, dated 2013).
Several values for one entry are separate records, joined by “and”; a condition that tells them apart may be missing. Equal values may be shown once.

Experiments:
mice with EAE [1] = assay: MOG35-55-induced EAE, CNS delivery of INF-γ at the recovery stage (doxycycline withdrawn at PID7); assay type: in vivo; details: DOX− mice
Excerpt: Double transgenic mice that allow for temporally regulated delivery of INF-γ to the CNS (Lin et al., J Neurosci 24:10074-10083 (2004)) were used to assess the role of INF-γ in the pathogenesis of EAE. GFAP/tTA; TRE/IFN-γ double transgenic mice, as described in Example 1 were used to determine the effect of INF-γ on the demyelination caused by EAE. All mice were fed doxycycline from the day of conception to repress the expression of INF-γ, and were immunized with myelin oligodendrocyte protein (MOG35-55) to induce EAE. At day 7 postimmunization (PID7), doxycycline was withdrawn from the experimental group (PID7 DOX−).
The level of INF-γ was determined in the control (DOX+) and the PID7 DOX− mice using an ELISA immunoassay as described in Example 1, and the severity of the disease was assessed as a function of a clinical score. Clinical severity scores were recorded daily according to a 0-5 point scale, where 0=healthy, 1=flaccid tail, 2=ataxia and/or paresis of hind limbs, 3=paralysis of hind limbs and/or paresis of forelimbs, 4=tetraparalysis, and 5=moribund or dead.
The spinal cord from DOX+ and DOX− animals with EAE was immunostained for MBP, and the remyelination of axons was evaluated. The number of oligodendrocytes was determined in the spine from DOX+ and DOX− mice as the number of CC1 positive cells. Axonal damage was evaluated by immunostaining of non-phosphorylated neurofilament-H. Antibodies to non-phosphorylated neurofilament-H Were SMI32 diluted to 1:1000 and obtained from Sternberger Monoclonals.

mice with EAE [2] = assay: MOG 35-55-induced EAE, CNS delivery of INF-γ at EAE onset (PERK+/+ double or PERK+/− triple mice); assay type: in vivo; details: for Mean of maximum clinical score (mean ± S.D.): 0-5 point scale; for Mean of maximum clinical score (mean ± S.D.) / Day of onset of disease (PID: postimmunization day): n = 25
[3] = test system: oligodendrocytes and myelin in the corpus callosum; assay: Cuprizone remyelination in double transgenic mice on PERK+/+ or PERK+/− background; assay type: in vivo; details: for remyelinated axons: 9 weeks
Excerpt: The involvement of the ER stress response in the reduction caused by IFN-γ to remyelinate lesions was examined in transgenic mice that were generated to be heterozygous for a loss of function mutation in pancreatic ER kinase (PERK) (Harding, et al., (2001) Mol Cell 7:1153-1163), and to be temporally regulated for expressing INF-γ in the CNS. TRE/IFN-γ mice were first crossed with PERK+/− mice (Harding, et al. (2001) Mol. Cell 7: 1153-1163) on the C57BL/6 background to generate mice the carry the PERK mutation, and the resulting progeny were crossed to GFAP/tTA mice to obtain transgenic mice that were heterozygous for the PERK mutation. The effect of PERK on remyelination in the presence or absence of INF-γ was evaluated as evaluated as a function of the level of myelination of oligodendrocytes in remyelinating lesions and the number of oligodendrocytes present in the remyelinating lesion.
The extent of remyelination was assessed as described in the previous examples in the corpus callosum of PERK+/+ and PERK+/− mice that were made to express INF-γ (DOX−PERK+/+ and DOX− PERK+/−), and in mice in which the expression of INF-γ was repressed (DOX+PERK+/+ and DOX+PERK+/−). Remyelination was determined by electron microscopy, and was related to the number of CC1 positive oligodendrocytes and the level of caspase-3 expression in the corpus callosum of all animals. The level of caspase-3 was determined by immunohistochemical methods using anti capsase antibody (active-casoase-3 antibody, 1:50; Cel Signaling Technology) and according to the method described in Example 1. Demyelination was induced in six-week-old GFAP/tTA; TRE/IFN-γ double transgenic mice on a PERK+/− background that had been maintained on doxycycline, by simultaneously treating the mice with 0.2% cuprizone and releasing them from doxycycline (DOX−PERK+/−). Remyelination was allowed to occur by withdrawing cuprizone at week 6.

Stat1 = Stat1 nuclear translocation assay in mixed primary oligodendrocyte cultures; assay type: cell-based, mice; details: 100 U/mL IFN-γ for 30 min, one hundred PLP positive cells counted
Procedure: Mixed primary oligodendrocyte cultures were prepared as previously described (Baerwald et al., 2000). Briefly, brain tissue was harvested from 2-3-day-old newborn pups of PLP/SOCS1 and C57B1/6J matings. Because the litters contained transgenic and wild-type pups, the brain of each animal was processed individually, cultured separately, and later genotype matched. Each brain was digested separately using 0.25% trypsin and 10 μg/ml of DNAaseI (Invitrogen) in Dulbecco's modified Eagle's medium (DMEM) for 20 min at 37° C., and cells were cultured on separate poly-D-lysine-coated […] flasks (Sigma-Aldrich). The cultures were maintained with 10% fetal bovine serum DMEM at 37° C. with 5% CO2 for 12 days, and then switched to a defined medium containing […] of insulin, 50 μg/ml of transferrin, 30 nM of selenium, 10 nM of biotin, 1 nM of progesterone, 15 nM of T3, 0.1% bovine serum albumin, and 1% […] (Sigma-Aldrich). […] One hundred PLP positive cells were manually counted in both wild-type and PLP/SOCS1 cultures. […]
The responsiveness of PLP/SOCS1 oligodendrocytes to IFN-γ was studied in primary mixed glial cultures. […] In contrast, Stat1 nuclear translocation was detected only in occasional PLP positive oligodendrocytes (6±2 cells) following IFN-γ stimulation (p<0.05).

B1: IFN-γ: pleotropic cytokine secreted by activated T lymphocytes and natural killer cells; recombinant rat IFN-γ added to cultures or transgenically expressed in mouse CNS (protein, UniProt P01581 23-156, looked up)
Interferon gamma: QGTLIESLESLKNYFNSSSMDAMEGKSLLLDIWRNWQKDGNTKILESQIISFYLRLFEVLKDNQAISNNISVIESHLITNFFSNSKAKKDAFMSIAKFEVNNPQIQHKAVNELIRVIHQLSPESSLRKRKRSRC
mean maximum clinical score (mice with EAE [1]; PID17, 0-5 point scale, DOX+ 2.66±0.80): 2.69±0.69
mice that developed hind limb paralysis (mice with EAE [1]; PID17, control twenty of 25): 24 of 30
mice with hind limb paralysis that continued to suffer from the paralysis (mice with EAE [1]; PID50): 12/24
clinical score (mice with EAE [1]; PID 50, control DOX+ less than 1): ~2
Incidence of death (mice with EAE [2]; DOX− double mice (PERK+/+)): 0/25
Mean of maximum clinical score (mean ± S.D.) (mice with EAE [2]; DOX− double mice (PERK+/+)): 1.63 ± 0.51
Day of onset of disease (PID: postimmunization day) (mice with EAE [2]; DOX− double mice (PERK+/+)): 14.7 ± 1.4
Incidence of hind limb paralysis (mice with EAE [2]; DOX− double mice (PERK+/+), listed as INF-γ): 2 of 25 and 2/25
MBP mRNA level in the spinal cord versus age-matched naive mice (mice with EAE [2]; DOX− double mice, PID17, DOX+ double mice decreased by 30%): not significantly decreased
Incidence of death (mice with EAE [2]; DOX− triple mice (PERK+/−)): 3/25
Incidence of hind limb paralysis (mice with EAE [2]; DOX− triple mice (PERK+/−)): 18/25
Mean of maximum clinical score (mean ± S.D.) (mice with EAE [2]; DOX− triple mice (PERK+/−)): 2.71 ± 1.11
Day of onset of disease (PID: postimmunization day) (mice with EAE [2]; DOX− triple mice (PERK+/−)): 13.6 ± 0.8
remyelinated axons ([3]; DOX−PERK+/+ mice, DOX+ 54.0%±4.3%): 31.1%±7.6%
number of CC1 positive oligodendrocytes ([3]; DOX−PERK+/+ mice, week 9, DOX+PERK+/+ 283.2±27.7): 123.2±27.5 /0.04 mm^2
remyelinated axons ([3]; DOX−PERK+/− mice, 3 weeks after cuprizone removal): 15.6%±7.6%
number of oligodendrocytes positive for caspase-3, DOX−PERK+/− versus DOX−PERK+/+ ([3]; corpus callosum, week 9): 2.3 times
PLP positive oligodendrocytes with Stat1 nuclear translocation (Stat1; PLP/SOCS1 cultures): 6±2 cells
PLP positive oligodendrocytes with Stat1 nuclear translocation (Stat1; wild-type cultures): 96±3 cells
